Laboratory results reported in patent US5861491.

Columns and labels:
[1] = molecular target: human serum albumin immobilized on Sepharose (human) (UniProt P02768); experiment: 125I-hLF retained on HSA-Sepharose, 10 mM sodium phosphate, 0.15M NaCl, pH 7.4, no addition
[2] = molecular target: human serum albumin immobilized on Sepharose (human) (UniProt P02768); experiment: 125I-hLF retained on HSA-Sepharose, +0.2% Tween-20
[3] = molecular target: human serum albumin immobilized on Sepharose (human) (UniProt P02768); experiment: 125I-hLF retained on HSA-Sepharose, +0.2% Tween-20 +0.5 M NaCl
[4] = molecular target: human serum albumin immobilized on Sepharose (human) (UniProt P02768); experiment: 125I-hLF retained on HSA-Sepharose, +0.2% Tween-20 +2 M NaCl
[5] = molecular target: human serum albumin immobilized on Sepharose (human) (UniProt P02768); experiment: 125I-hLF retained on HSA-Sepharose, +0.2% Tween-20 +0.1% Polybrene
[6] = molecular target: human serum albumin immobilized on Sepharose (human) (UniProt P02768); experiment: 125I-hLF retained on HSA-Sepharose, +0.2% Tween-20 +0.25 M NaCl
[7] = molecular target: caseins (casein fraction of whole bovine milk); experiment: co-sedimentation of bLF with the casein pellet of whole cow milk (centrifugation only, no addition), bLF read by competitive inhibition RIA

percentage binding [1] | percentage binding [2] | percentage binding [3] | percentage binding [4] | percentage binding [5] | percentage binding [6] | % of total bLF found in casein fraction [7] | Substance
8% | 9% | 3% | 4% | 4% | 4% | – | 125I-labelled human lactoferrin (from UniProt P02788)
– | – | – | – | – | – | 21% | bovine lactoferrin (from UniProt P24627)
